Assay results taken from article PMC2997469 (Bioorganic & medicinal chemistry letters, 2010).
No end group written: not given here.

How the values were obtained:
[1] = target: T1, XIAP protein containing linker-BIR2–BIR3; experiment: fluorescence polarisation
T1 chain: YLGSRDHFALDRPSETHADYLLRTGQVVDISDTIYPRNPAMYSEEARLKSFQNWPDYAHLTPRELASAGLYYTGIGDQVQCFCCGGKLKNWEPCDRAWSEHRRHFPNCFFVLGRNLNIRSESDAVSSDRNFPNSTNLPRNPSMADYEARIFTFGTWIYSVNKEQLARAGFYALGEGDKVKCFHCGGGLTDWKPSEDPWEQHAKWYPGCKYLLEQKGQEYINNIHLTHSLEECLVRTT

cIAP-1 BIR3 protein = target: T2, cIAP-1 BIR3 protein; experiment: fluorescence polarisation
T2 chain: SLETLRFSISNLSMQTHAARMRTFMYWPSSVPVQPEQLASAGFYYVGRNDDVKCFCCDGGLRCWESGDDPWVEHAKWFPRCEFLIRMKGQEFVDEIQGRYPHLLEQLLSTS

B1: PSmac-21 (compound 1), cyclopeptidic Smac mimetic (peptide)
peptide: AKPF
modifications: also: cyclopeptidic structure not given here
- IC50 site 1 [1]: 1 nM
- IC50 site 2 [1]: 481 nM
- Ki (cIAP-1 BIR3 protein): 84 ± 9 nM
